Test results from IntAct's records for PubMed 29892012.

B1: Abl interactor 2 (Homo sapiens), Q9NYB9 (parent)
chain: MAELQMLLEEEIPGGRRALFDSYTNLERVADYCENNYIQSADKQRALEETKAYTTQSLASVAYLINTLANNVLQMLDIQASQLRRMESSINHISQTVDIHKEKVARREIGILTTNKNTSRTHKIIAPANLERPVRYIRKPIDYTILDDIGHGVKWLLRFKVSTQNMKMGGLPRTTPPTQKPPSPPMSGKGTLGRHSPYRTLEPVRPPVVPNDYVPSPTRNMAPSQQSPVRTASVNQRNRTYSSSGSSGGSHPSSRSSSRENSGSGSVGVPIAVPTPSPPSVFPAPAGSAGTPPLPATSASAPAPLVPATVPSSTAPNAAAGGAPNLADGFTSPTPPVVSSTPPTGHPVQFYSMNRPASRHTPPTIGGSLPYRRPPSITSQTSLQNQMNGGPFYSQNPVSDTPPPPPPVEEPVFDESPPPPPPPEDYEEEEAAVVEYSDPYAEEDPPWAPRSYLEKVVAIYDYTKDKEDELSFQEGAIIYVIKKNDDGWYEGVMNGVTGLFPGNYVESIMHYSE

Variants of: B1
Conditions: with ift20_human IFT20, Q8IY31
Chain of ift20_human IFT20, Q8IY31 (Q8IY31 whole entry): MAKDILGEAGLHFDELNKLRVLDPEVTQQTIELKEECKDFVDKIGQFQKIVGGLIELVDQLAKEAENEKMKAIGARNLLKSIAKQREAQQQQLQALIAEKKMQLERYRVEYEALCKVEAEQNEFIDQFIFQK

Row | effect of a mutation on the interaction | Variant
1 | with no effect | R373C

Variants of: B1
Conditions: with k1h1_human KRT31, Q15323
Chain of k1h1_human KRT31, Q15323 (Q15323 whole entry): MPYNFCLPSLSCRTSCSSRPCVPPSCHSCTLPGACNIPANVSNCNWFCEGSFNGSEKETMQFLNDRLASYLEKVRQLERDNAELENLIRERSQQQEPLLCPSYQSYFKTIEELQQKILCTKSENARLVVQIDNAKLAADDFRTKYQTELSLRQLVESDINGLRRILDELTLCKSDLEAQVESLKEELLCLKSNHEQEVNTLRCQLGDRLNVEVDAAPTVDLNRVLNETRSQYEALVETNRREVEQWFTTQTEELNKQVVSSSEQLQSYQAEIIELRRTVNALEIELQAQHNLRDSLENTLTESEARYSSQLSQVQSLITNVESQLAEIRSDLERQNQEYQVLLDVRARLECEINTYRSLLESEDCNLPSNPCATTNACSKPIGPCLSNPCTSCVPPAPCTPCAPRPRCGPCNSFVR

Row | effect of a mutation on the interaction | Variant
2 | with no effect | R373C

Variants of: B1
Conditions: with aapk2_human PRKAA2, P54646
Chain of aapk2_human PRKAA2, P54646 (P54646 whole entry, looked up): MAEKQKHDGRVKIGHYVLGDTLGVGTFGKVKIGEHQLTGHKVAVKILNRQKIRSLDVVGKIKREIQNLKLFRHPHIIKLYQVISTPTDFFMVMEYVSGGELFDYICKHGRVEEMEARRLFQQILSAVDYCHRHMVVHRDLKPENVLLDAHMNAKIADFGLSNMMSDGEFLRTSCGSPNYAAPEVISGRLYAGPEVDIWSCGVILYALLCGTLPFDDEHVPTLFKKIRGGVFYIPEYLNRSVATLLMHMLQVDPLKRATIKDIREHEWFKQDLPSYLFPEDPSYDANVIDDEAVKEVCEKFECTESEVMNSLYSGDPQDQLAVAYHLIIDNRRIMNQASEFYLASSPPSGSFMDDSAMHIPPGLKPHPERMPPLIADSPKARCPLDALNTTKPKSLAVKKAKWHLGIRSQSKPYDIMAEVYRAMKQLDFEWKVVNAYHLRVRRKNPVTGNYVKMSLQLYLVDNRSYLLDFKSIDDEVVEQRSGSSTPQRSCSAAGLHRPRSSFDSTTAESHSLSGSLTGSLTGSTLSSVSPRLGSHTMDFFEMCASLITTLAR

Row | effect of a mutation on the interaction | Variant
3 | with no effect | R373C

Variants of: B1
Conditions: with stam2_human STAM2, O75886

Row | effect of a mutation on the interaction | Variant
4 | with no effect | R373C

Variants of: B1
Conditions: with aapk1_human PRKAA1, Q13131

Row | effect of a mutation on the interaction | Variant
5 | with no effect | R373C

Variants of: B1
Conditions: with hnrpk_human HNRNPK

Row | effect of a mutation on the interaction | Variant
6 | with no effect | R373C

Variants of: B1
Conditions: with vasp_human VASP

Row | effect of a mutation on the interaction | Variant
7 | with no effect | R373C

Variants of: B1
Conditions: with KRT15, P19012
Chain of KRT15, P19012 (P19012 whole entry): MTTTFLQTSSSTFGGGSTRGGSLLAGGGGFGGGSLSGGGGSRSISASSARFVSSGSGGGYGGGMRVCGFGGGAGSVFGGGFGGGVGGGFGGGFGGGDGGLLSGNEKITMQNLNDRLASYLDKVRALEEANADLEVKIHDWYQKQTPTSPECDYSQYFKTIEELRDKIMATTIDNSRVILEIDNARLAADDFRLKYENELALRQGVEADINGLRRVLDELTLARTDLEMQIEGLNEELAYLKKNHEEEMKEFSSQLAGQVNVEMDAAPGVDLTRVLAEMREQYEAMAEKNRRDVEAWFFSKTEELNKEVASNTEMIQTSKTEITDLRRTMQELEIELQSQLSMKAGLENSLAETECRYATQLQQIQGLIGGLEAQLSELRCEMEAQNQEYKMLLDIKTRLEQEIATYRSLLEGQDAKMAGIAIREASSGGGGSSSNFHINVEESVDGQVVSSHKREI

Row | effect of a mutation on the interaction | Variant
8 | with no effect | R373C

Variants of: B1
Conditions: with nup62_human NUP62, P37198

Row | effect of a mutation on the interaction | Variant
9 | with no effect | R373C

Variants of: B1
Conditions: with KRT19, P08727

Row | effect of a mutation on the interaction | Variant
10 | with no effect | R373C

Variants of: B1
Conditions: with nck2_human NCK2, O43639
Chain of nck2_human NCK2, O43639 (O43639 whole entry): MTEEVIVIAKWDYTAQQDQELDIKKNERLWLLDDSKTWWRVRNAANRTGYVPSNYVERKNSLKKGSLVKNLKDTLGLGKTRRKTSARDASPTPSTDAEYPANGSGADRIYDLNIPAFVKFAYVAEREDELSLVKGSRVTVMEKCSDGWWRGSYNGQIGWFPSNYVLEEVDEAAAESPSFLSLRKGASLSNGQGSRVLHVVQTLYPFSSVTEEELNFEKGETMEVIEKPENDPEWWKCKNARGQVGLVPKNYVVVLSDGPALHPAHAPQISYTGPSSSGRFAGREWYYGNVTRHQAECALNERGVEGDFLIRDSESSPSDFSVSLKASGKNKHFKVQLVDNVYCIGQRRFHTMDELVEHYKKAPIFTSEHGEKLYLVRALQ

Row | effect of a mutation on the interaction | Variant
11 | with no effect | R373C

Variants of: B1
Conditions: with hgs_human HGS

Row | effect of a mutation on the interaction | Variant
12 | with no effect | R373C

Variants of: B1
Conditions: with sdcb1_human SDCBP

Row | effect of a mutation on the interaction | Variant
13 | with no effect | R373C

Variants of: B1
Conditions: with tri32_human TRIM32, Q13049
Chain of tri32_human TRIM32, Q13049 (Q13049 whole entry): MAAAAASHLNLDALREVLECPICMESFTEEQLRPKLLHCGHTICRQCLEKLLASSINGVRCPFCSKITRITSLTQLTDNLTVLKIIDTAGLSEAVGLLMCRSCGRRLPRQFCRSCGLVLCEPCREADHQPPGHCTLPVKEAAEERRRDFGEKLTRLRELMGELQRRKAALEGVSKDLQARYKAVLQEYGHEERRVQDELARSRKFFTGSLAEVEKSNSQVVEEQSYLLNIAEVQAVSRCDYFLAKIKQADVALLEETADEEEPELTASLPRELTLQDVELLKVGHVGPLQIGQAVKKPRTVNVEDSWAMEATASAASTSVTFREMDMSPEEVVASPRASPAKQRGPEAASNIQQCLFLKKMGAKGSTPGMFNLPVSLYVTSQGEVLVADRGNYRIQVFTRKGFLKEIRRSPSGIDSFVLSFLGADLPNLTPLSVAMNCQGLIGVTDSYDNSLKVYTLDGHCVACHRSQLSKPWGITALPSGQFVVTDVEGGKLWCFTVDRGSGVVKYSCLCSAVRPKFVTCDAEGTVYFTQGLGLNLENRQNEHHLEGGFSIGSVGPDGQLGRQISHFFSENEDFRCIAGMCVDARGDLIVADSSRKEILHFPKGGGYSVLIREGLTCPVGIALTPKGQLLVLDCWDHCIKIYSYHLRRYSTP

Row | effect of a mutation on the interaction | Variant
14 | with no effect | R373C

Variants of: B1
Conditions: with pcm1_human PCM1, Q15154
Chain of pcm1_human PCM1, Q15154 (Q15154 whole entry): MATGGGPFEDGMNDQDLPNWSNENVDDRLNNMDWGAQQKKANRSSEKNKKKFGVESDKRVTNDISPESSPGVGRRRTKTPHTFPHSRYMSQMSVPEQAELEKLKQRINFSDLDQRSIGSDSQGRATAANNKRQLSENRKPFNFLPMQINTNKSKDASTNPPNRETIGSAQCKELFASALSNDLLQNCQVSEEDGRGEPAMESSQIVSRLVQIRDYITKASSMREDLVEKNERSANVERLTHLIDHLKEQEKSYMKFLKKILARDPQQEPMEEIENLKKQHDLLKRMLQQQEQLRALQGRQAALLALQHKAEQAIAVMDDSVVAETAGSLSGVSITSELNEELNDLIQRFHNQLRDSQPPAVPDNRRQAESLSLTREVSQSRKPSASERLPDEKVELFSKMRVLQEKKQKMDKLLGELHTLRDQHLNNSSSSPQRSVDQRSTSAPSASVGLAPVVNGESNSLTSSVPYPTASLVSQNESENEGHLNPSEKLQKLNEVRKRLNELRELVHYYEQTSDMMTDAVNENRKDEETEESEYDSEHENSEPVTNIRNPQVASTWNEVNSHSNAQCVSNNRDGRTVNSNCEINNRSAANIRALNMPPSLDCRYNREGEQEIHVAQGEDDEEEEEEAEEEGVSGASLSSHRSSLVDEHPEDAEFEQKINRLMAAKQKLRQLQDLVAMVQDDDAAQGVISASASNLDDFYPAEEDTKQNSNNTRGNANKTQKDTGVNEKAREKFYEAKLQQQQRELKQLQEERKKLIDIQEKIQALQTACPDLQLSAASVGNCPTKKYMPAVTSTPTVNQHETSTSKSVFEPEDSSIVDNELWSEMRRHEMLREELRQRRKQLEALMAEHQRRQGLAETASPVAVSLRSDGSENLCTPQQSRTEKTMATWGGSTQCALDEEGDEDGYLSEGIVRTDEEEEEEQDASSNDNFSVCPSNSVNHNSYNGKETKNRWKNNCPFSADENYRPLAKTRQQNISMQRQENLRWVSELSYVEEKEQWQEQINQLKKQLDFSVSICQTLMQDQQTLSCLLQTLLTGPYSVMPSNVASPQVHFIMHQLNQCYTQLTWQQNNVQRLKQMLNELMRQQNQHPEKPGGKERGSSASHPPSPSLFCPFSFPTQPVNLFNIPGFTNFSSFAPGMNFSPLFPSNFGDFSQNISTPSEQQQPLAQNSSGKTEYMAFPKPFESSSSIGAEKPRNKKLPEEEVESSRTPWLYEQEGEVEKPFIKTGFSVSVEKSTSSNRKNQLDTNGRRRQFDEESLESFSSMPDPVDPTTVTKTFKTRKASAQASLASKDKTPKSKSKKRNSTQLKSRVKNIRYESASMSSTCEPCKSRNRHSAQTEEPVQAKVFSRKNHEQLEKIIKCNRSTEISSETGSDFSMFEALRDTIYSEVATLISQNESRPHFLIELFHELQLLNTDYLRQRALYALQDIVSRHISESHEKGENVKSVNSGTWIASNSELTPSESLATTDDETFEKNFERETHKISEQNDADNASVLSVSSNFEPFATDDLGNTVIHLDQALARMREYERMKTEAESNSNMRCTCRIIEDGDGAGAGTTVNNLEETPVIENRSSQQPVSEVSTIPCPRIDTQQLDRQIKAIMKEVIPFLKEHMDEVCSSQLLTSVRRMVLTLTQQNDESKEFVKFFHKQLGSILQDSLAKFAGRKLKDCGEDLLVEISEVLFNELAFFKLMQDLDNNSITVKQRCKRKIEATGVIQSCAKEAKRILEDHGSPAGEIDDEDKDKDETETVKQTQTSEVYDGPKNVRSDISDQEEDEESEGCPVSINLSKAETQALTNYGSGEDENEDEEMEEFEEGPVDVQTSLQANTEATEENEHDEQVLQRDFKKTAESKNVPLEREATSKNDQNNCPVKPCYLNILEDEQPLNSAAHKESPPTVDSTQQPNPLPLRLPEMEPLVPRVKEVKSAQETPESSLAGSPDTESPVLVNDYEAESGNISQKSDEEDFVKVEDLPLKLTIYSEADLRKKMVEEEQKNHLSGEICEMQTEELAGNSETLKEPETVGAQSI

Row | effect of a mutation on the interaction | Variant
15 | with no effect | R373C

Variants of: B1
Conditions: with vinc_human VCL

Row | effect of a mutation on the interaction | Variant
16 | with no effect | R373C

Variants of: B1
Conditions: with crx_human CRX

Row | effect of a mutation on the interaction | Variant
17 | with no effect | R373C

Variants of: B1
Conditions: with mr1l1_human MRFAP1L1, Q96HT8
Chain of mr1l1_human MRFAP1L1, Q96HT8 (Q96HT8 whole entry): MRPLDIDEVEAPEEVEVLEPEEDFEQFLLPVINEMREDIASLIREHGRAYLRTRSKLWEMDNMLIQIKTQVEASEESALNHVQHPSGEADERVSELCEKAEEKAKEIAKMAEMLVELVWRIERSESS

Row | effect of a mutation on the interaction | Variant
18 | with no effect | R373C

Variants of: B1
Conditions: with efs_human EFS

Row | effect of a mutation on the interaction | Variant
19 | with no effect | R373C
